From patent US9399663B2, “Competitive inhibitor of GP120” (priority 2014, dated 2016)
Several values for one entry are separate records, joined by “and”; a condition that tells them apart may be missing. Equal entries are not always repeated. Where two headings read alike, the source gives them in different places.

Assays:
recombinant TUBB3 = target: T1, recombinant TUBB3 (Homo sapiens, UniProt Q13509); assay: SPR (BIACORE T200) binding to immobilized TUBB3; conditions: for Kd: Ligand: TUBB3
T1 construct: purchased MyBioSource, San Diego, Calif
Experimental: (§1) Surface plasmon resonance (SPR). BIACORE® T200™ was used to determine the kinetic parameters for the binding of recombinant TUBB3, tubulin dimer, and assembled microtubules (ligands) to the various isoforms of gp120 or related peptides (analytes). Recombinant TUBB3, tubulin dimer, and assembled MTs were covalently attached to different flow cells of a carboxymethyldextran (CM5) sensor chip by amine coupling. The chip surface was activated for 720 sec at 10 μL/min with of 1:1 mixture of 0.1 M N-Hydroxysuccinimide (NHS) and 0.5 M 1-Ethyl-3-(-3-dimethylaminopropyl)-carbodiimide hydrochloride (EDC). […] After ligand capture, the surfaces were deactivated by injecting 1 M ethanolamine for 720 sec at 10 μL/min. HBS-P (10 mM HEPES, pH7.4, 150 mM NaCl, 0.05% P-20) with 2 mM MgCl2 used as the running buffer. Flow cell 1 on each chip was left empty and used for reference surface. […] Kinetic studies were performed by injecting different concentrations of the analytes in triplicate. The chip surface was regenerated by with 10 mM glycine pH 1.5 injected for 30 sec at a flow rate of 100 μL/min. Each sample was injected for 60 sec (contact time) followed by a dissociation time of 300 sec at a flow rate of 100 μL/min. Data was analyzed with BIACORE® T200™ Evaluation Software (version 1) to determine the equilibrium dissociation constant (KD) from a 1:1 binding model. Binding studies with peptides Helix A and Helix B were done in the same way as described above. Kinetic studies were performed by injecting different concentrations (20 μM, 10 μM, 5 μM, 2.5 μM, 1.25 μM and 0.625 μM) of Helix A and Helix B. Competition experiments with Helix A and Helix B were performed by mixing 100 nM gp120 isoforms with 10 μM of each peptide and injecting over the sensorchip surface.
(§2) Recombinant TUBB3, tubulin dimer, and assembled MTs from bovine brains were immobilized on a BIACORE® CM5 chip by amine coupling. Different concentrations of gp120s (from 3.13 to 100 nM) were injected over the surface in triplicates in each experiment. The kinetics of interaction was analyzed using a BIACORE® T200™ instrument. BiaEvaluation software was used to calculate binding affinities based on 1:1 binding model.

tubulin dimer = assay: SPR (BIACORE T200) binding to immobilized tubulin dimer; parameters: species or system Porcine
Experimental: as §1
as §2, with “BiaEvaluation software was used to calculate binding affinities based on 1:1 binding model.” left out

assembled MTs = assay: SPR (BIACORE T200) binding to immobilized assembled microtubules; parameters: species or system Porcine
Experimental: Surface plasmon resonance (SPR). BIACORE® T200™ was used to determine the kinetic parameters for the binding of recombinant TUBB3, tubulin dimer, and assembled microtubules (ligands) to the various isoforms of gp120 or related peptides (analytes). Recombinant TUBB3, tubulin dimer, and assembled MTs were covalently attached to different flow cells of a carboxymethyldextran (CM5) sensor chip by amine coupling. The chip surface was activated for 720 sec at 10 μL/min with of 1:1 mixture of 0.1 M N-Hydroxysuccinimide (NHS) and 0.5 M 1-Ethyl-3-(-3-dimethylaminopropyl)-carbodiimide hydrochloride (EDC). […] After ligand capture, the surfaces were deactivated by injecting 1 M ethanolamine for 720 sec at 10 μL/min. HBS-P (10 mM HEPES, pH7.4, 150 mM NaCl, 0.05% P-20) with 2 mM MgCl2 used as the running buffer. Flow cell 1 on each chip was left empty and used for reference surface. TUBB3 (1040 RU), tubulin dimer (2086 RU), and assembled MTs (990 RU) were captured on the remaining 3 flow cells. Kinetic studies were performed by injecting different concentrations of the analytes in triplicate. The chip surface was regenerated by with 10 mM glycine pH 1.5 injected for 30 sec at a flow rate of 100 μL/min. Each sample was injected for 60 sec (contact time) followed by a dissociation time of 300 sec at a flow rate of 100 μL/min. Data was analyzed with BIACORE® T200™ Evaluation Software (version 1) to determine the equilibrium dissociation constant (KD) from a 1:1 binding model. Binding studies with peptides Helix A and Helix B were done in the same way as described above. Kinetic studies were performed by injecting different concentrations (20 μM, 10 μM, 5 μM, 2.5 μM, 1.25 μM and 0.625 μM) of Helix A and Helix B. Competition experiments with Helix A and Helix B were performed by mixing 100 nM gp120 isoforms with 10 μM of each peptide and injecting over the sensorchip surface.
Recombinant TUBB3, tubulin dimer, and assembled MTs from bovine brains were immobilized on a BIACORE® CM5 chip by amine coupling. […] The kinetics of interaction was analyzed using a BIACORE® T200™ instrument. […]

tubulin β-3 (TUBB3) = target: T2, tubulin β-3 (TUBB3) (Rattus norvegicus, UniProt Q4QRB4); assay: LC-MS/MS of gp120 immunocomplex from lysates of gp120-treated neurons; format: binding; conditions: anti-gp120 immunoprecipitation
T2 construct: Neurons exposed to gp120IIIB were lysated in RIPA buffer; endogenous in cells; host or cells: primary cortical neurons from embryonic (E17-18) Sprague Dawley rats
Experimental: LC-MS/MS analysis identifies tubulin β-3 (TUBB3) as an interactor of gp120IIIB Top panel: Chromatogram of the whole data set of gp120 interactors. In orange is indicated the peak (retention time=46.45 minutes) associated to peptide ^337[…]^350 (SEQ ID NO: 15) of TUBB3. Bottom panel: The fragmentation spectrum of peptide of TUBB3 is shown to identify TUBB3 among gp120IIIB interactors. The series of y sequence coverage is highlighted.
Liquid chomatography-mass spectrometry (LC-MS/MS): Neurons exposed to gp120IIIB were lysated in RIPA buffer with protease and phosphatase inhibitors (THERMO FISHER […]®) at 4° C. and then incubated with mouse anti-gp120 antibody. Gp120 complex of interacting proteins was eluted from immobilized protein A beads, reduced, alkylated and digested with trypsin. The tryptic digests were analyzed by mass spectrometry, using a LTQ ORBITRAP XL™ hybrid FTMS (Fourier transform mass spectrometer) (THERMO FISHER […]®). Peptide separation was performed with solvent A (0.1% HCOOH in H2O) and solvent B (0.1% formic acid in ACN), using the following gradient: from 5% B for 1 minute to 60% B in 70 minutes. Peptides were analyzed using a precursor mass range of 300-5000 Da. MS/MS analyses were used to query a non-redundant protein database (rat.fasta) using the software SEQUEST™. […]

[1] = 100 nM gp120 alone, 60 sec injection

T1 sequence (Q13509 whole entry): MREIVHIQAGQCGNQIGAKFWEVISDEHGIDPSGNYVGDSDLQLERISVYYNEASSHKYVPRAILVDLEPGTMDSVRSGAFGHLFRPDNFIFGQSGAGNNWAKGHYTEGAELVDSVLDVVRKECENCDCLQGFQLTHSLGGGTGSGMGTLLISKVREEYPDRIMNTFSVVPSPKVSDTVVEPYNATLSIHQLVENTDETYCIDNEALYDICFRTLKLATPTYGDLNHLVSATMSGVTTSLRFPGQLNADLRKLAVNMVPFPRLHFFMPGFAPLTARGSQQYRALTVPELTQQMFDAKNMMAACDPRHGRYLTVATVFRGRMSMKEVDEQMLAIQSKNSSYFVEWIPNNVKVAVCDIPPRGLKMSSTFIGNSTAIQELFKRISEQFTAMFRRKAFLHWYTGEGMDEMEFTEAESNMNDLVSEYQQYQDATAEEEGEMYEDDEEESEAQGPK
T2 sequence (P68370 whole entry): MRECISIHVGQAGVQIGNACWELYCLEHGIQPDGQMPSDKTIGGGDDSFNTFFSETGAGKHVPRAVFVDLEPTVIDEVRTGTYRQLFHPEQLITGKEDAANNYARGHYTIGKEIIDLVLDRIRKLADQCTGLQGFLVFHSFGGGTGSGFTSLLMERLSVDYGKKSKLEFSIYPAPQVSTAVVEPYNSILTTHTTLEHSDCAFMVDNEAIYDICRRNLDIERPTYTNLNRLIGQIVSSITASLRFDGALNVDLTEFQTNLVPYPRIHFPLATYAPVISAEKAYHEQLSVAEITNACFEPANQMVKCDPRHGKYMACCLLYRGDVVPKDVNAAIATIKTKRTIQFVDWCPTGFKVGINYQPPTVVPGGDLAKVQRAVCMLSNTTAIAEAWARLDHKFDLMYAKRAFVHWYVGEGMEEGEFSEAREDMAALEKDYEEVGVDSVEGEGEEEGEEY
T2 sequence (Q4QRB4 whole entry): as the sequence (Q13509 whole entry) above, with E441D counted along it

“gp120IIIB: HIV envelope protein gp120, strain IIIB, purchased from Immunodiagnostics” was tested, and the “SPR response (2-1) RU, Fc2: Tubulin β-3 1092 RU” value (recombinant TUBB3; [1]) was 35 RU and 44 RU, the Kd (recombinant TUBB3; mean of two independent experiments, read-out: Mean KD) was 7.5 nM and the Kd (recombinant TUBB3; single experiment, gp120 3.13 to 100 nM, 1:1 binding model, read-out: KD) was 7.91 nM and 7.05 nM. The “SPR response (3-1) RU, Fc3: Tubulin Dimer 1900 RU” value (tubulin dimer; [1]) was 21 RU and 14 RU and 18.6 RU, the Kd (tubulin dimer; Ligand: Tubulin Dimer, mean of two independent experiments) was 12.3 nM and the “SPR response (4-1) RU, Fc4: Microtubules 970 RU” value (assembled MTs; [1]) was 19 RU and 15 RU and 23.2 RU. The Kd (assembled MTs; Ligand: Assembled MTs, mean of two independent experiments) was 10 nM and the “TUBB3 identified among gp120 interactors (LC-MS/MS)” value (tubulin β-3 (TUBB3)) was “interactor”.
